Assay results: the RNAGym collection of RNA variant scans (doi:10.1073/pnas.2313332121)

B1: TPR t1 (parent)
chain: GACCAAUCUGCCCUCAGAGCUCGAGAACAUCUUCGGAUGCAGAGGAGGCAGGCUUCGGUGGCGCGAUAGCGCCAACGUCCUCAACCUCCAAUGCAUCCCACCACAUGAUGAUGCCUGAAGAGCCUUGGUUUUUUG

Variants of: B1
Experiment: polymerase ribozyme fitness, log enrichment relative to wild type (log ratio); higher = more active; in vitro selection for triplet polymerase activity
Method in brief: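 For each subunit of a heterodimeric triplet polymerase ribozyme, a mutant library was built by PCR and transcribed, then taken through a single in vitro selection round in triplicate. Selection involved annealing to a biotinylated primer, the partner subunit and triplets, incubation frozen at −7 °C, gel excision of extended constructs, capture on streptavidin beads and RT-PCR. Genotypes were retained after Illumina sequencing of inputs and outputs only with ≥10 input reads and ≥1 read in each output. Fitness is defined as the logarithm of a genotype's enrichment relative to wild-type enrichment, using inverse-variance-weighted averages across replicates, with the logarithm taken to base 2.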

Row | Variant | polymerase ribozyme fitness (log ratio)
1 | G58A C73A A84G A103G C124G | -7.11
2 | G58A C76U | -0.743
3 | G58A C85U | -1.88
4 | G58A C86U | -0.881
5 | G58A C88U C94U G127C G135U | -3.94
6 | G58A C123G | 2.11
7 | G58A G60C G120C | -3.34
8 | G58A G61A C85A G113A | 0.19
9 | G58A G61A G93A G113C U125C G135A | -2.01
10 | G58A G61A G120A | 0.579
11 | G58A G69A | -2.24
12 | G58A G77U U81A U87C C102A | -4.48
13 | G58A G135U | -1.49
14 | G58A U78G | 0.00664
15 | G58A U81C C85G | -2.26
16 | G58A U92A | -2.93
17 | G58C A83U C85A U112G U129G | -0.79
18 | G58C A90U U109A C114U | -5.55
19 | G58C A91U | -2.24
20 | G58C A111C U112C | -0.0453
21 | G58C A111G | 0.509

Row | Variant | polymerase ribozyme fitness (log ratio)
22 | G58C A118G G120C | -0.431
23 | G58C A118U G127C | -1.14
24 | G58C C70U | -0.846
25 | G58C C70U G110C A121U | -5.63
26 | G58C C73A C98G | -6.44
27 | G58C C73U C86G | -0.297
28 | G58C C76U C104A G113U A119C | -6.29
29 | G58C G60C A111U | -3.12
30 | G58C U59C A83C U106A | -0.577
31 | G58C U96A C97A C104A G120U G128C | -7.29
32 | G58C U126C | -1.22
33 | G58U A119G | 0.849
34 | G58U C98U U125A | -1.35
35 | G58U C114U | -2.25
36 | G58U G63A C82A C97U G110A | -4.64
37 | G58U G69U C97A G120C | -1.35
38 | G58U G71A C79A A103G C115U | -7.13
39 | G58U G71A G77A | 0.0877
40 | U59A A95U G128A | -2.84
41 | U59A C62A A100C U106A C124G | -0.96
42 | U59A C70U | -0.265

Row | Variant | polymerase ribozyme fitness (log ratio)
43 | U59A C70U C102A A105U A111G G128A U129A | -5.83
44 | U59A C72A U109A | -7.12
45 | U59A C85A C94A G120A | -0.6
46 | U59A C88G | -1.44
47 | U59A C101A C114A | -2.95
48 | U59A C101U C124A | 1.59
49 | U59A C102U A103C | -5.53
50 | U59A C123G | 2
51 | U59A G61U | -0.465
52 | U59A G61U A84U | -0.153
53 | U59A G77A A83C U92A C102U U109C C114U | -6.72
54 | U59A G77U | -2.02
55 | U59A G77U U130G | -1.24
56 | U59A G117A | -1.36
57 | U59A U87A | -0.298
58 | U59A U87G | -0.319
59 | U59C A66G | -1.47
60 | U59C A66U | -1.57
61 | U59C A84C | -0.231
62 | U59C A103U U112C G128U U132A U133A | -5.05
63 | U59C C64U U81A | -1.8

Row | Variant | polymerase ribozyme fitness (log ratio)
64 | U59C C70A | -2.41
65 | U59C C86U | -1.17
66 | U59C C97A U109C C114G G122U | -6.59
67 | U59C C101A | -1.32
68 | U59C C102A C115G | -4.44
69 | U59C C114A U130A | -2.23
70 | U59C C123G | 1.95
71 | U59C G60C | -0.854
72 | U59C G71A G127C U132C | -2.94
73 | U59C G107A | -5.95
74 | U59C G107C U112A U133G | -6.34
75 | U59C G110A | -1.31
76 | U59C G117A | -1.62
77 | U59C G127C | -1.09
78 | U59C U78G C104U G117A | -2.35
79 | U59G A83C C97U | -0.481
80 | U59G C62A A95U | -3.76
81 | U59G C72A | -2.02
82 | U59G C79A A103G | -5.54
83 | U59G C85U G113A | -1.67
